# Assay results taken from publication PMC8871475, “An Antibody-Aptamer-Hybrid Lateral Flow Assay for Detection of CXCL9 in Antibody-Mediated Rejection after Kidney Transplantation”.
# T1: CXCL9 (CXC-motif chemokine ligand 9) (UniProt Q07325 23-125)
# T1 sequence: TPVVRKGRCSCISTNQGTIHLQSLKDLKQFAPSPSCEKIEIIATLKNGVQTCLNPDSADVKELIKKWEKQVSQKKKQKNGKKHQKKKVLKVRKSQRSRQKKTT
# B1: AuNP-G123 (ssDNA)
# DNA: CACGACGCAAGGGACCACAGGGAGGGAGGGTGGGCAAAGGGCCCTAAGTCCGTAACAAAAACACAGCACGACACCGCAGAGGCA
# modifications: 5' C6-disulfide linker and hexaethylene glycol spacer
# Target: T1, CXCL9 (CXC-motif chemokine ligand 9)
# Test: lateral flow assay (antibody-aptamer sandwich); capture antibody A in test zone; LOD 10 pg/mL CXCL9 in binding buffer, 45 min; LFA binding buffer (PBS-based, urine-like): 138 mM NaCl, 5 mM KCl, 8.1 mM Na2HPO4, 1.5 mM KH2PO4, 1 mM MgCl2, 1 mM CaCl2, 170 mM urea, 7 mM ammonium acetate, 0.25% BSA, 0.1 mg/mL salmon sperm DNA, pH 6.5; temperature not stated; Kd conditions not given
# Conditions: protein: commercial; label: gold nanoparticle (5')
binder,measurement,value
B1,binding result,binds
